Source: patent US20160355587A1 (published 2016)
Changes are numbered by the printed parent chain. Values belong to the binder of their own block, whether it stands above or below them.

Experiments:
human CD166 protein = target: T1, human CD166 protein (human, UniProt Q13740 28-526); experiment: FACS; apparent Kd
T1 chain: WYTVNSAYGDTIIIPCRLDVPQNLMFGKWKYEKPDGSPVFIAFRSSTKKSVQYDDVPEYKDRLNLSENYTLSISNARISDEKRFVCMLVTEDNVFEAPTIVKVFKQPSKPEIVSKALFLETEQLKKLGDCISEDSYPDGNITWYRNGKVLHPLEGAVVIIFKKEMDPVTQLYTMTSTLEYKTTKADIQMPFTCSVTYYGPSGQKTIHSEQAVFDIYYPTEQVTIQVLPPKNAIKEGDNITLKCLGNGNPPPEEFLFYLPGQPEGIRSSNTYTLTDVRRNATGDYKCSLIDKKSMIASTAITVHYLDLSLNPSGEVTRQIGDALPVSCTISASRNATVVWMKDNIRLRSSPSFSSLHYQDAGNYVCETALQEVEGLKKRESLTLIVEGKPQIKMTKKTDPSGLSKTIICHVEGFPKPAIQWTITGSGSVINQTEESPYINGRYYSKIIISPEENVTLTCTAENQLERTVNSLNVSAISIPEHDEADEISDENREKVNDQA

CD166-M9_chimera = experiment: FACS; apparent Kd

B1: CD166-M9_vk3a/HcB (antibody, V domains shown)
VH: QITLKESGPTLVKPTQTLTLTCTFSGFSLSTYGMGVGWIRQPPGKALEWLANIWWSEDKHYSPSLKSRLTITKDTSKNQVVLTMTNMDPVDTATYYCVQIDYGNDYAFTYWGQGTLVTVSS
VL: DIVMTQSPLSLPVTPGEPASISCRSSQSLLHSNGITYLYWYLQKPGQSPQLLIYQMSNRASGVPDRFSGSGSGTDFTLKISRVEAEDVGVYYCAQNLELPYTFGQGTKLEIK
- Kd (human CD166 protein): 2.88 nM

B3: CD166-M9_vK2/HcC (antibody, V domains shown)
VH: B1 VH with M84I, M87V
VL: B1 VL with Q27K, R59L, G69S
- Kd (human CD166 protein): 2.5 nM

B4: CD166-M9_vK3b/HcC (antibody, V domains shown)
VH: B1 VH with M84I, M87V
VL: B1 VL with G69S
- Kd (human CD166 protein): 3.19 nM

The next lines start with the values.

- Kd (human CD166 protein): 2.61 nM
B2: CD166-M9_vK3b/HcB (antibody, V domains shown)
VH: B1 VH
VL: B1 VL with G69S

- Kd (human CD166 protein): 3.76 nM
B5: CD166-M9_vK3a/HcC (antibody, V domains shown)
VH: B1 VH with M84I, M87V
VL: B1 VL

- Kd (CD166-M9_chimera): 1.12 nM
B6: human CD166 (receptor)
chain: T1 chain
